B1: I-A^k: mouse Class II MHC glycoprotein I-A^k purified by affinity chromatography on 10-2.16 antibody (protein)
MHC II alpha: EDDIEADHVGSYGITVYQSPGDIGQYTFEFDGDELFYVDLDKKETVWMLPEFAQLRRFEPQGGLQNIATGKHNLEILTKRSNSTPATNEAPQATVFPKSPVLLGQPNTLICFVDNIFPPVINITWLRNSKSVTDGVYETSFFVNRDYSFHKLSYLTFIPSDDDIYDCKVEHWGLEEPVLKHWEPEIPAPMSELTE
MHC II beta: GNSERHFVHQFQPFCYFTNGTQRIRLVIRYIYNREEYVRFDSDVGEYRAVTELGRPDAEYWNKQYLERTRAELDTVCRHNYEKTETPTSLRRLEQPSVVISLSRTEALNHHNTLVCSVTDFYPAKIKVRWFRNGQEETVGVSSTQLIRNGDWTFQVLVMLEMTPRRGEVYTCHVEHPSLKSPITVEWRAQSESARSK

Columns and labels:
[1] = system: Lewis rats; assay: Therapeutic treatment of clinical stage 1 EAMG
[2] = system: RT1.B; assay: Peptide loading of rat MHC II (nitrocellulose filter binding and TLC); conditions: 50-fold molar excess peptide, 37° C., 24 hours
Experimental: (§1) Rat MHC II Purification and Peptide Loading. Rat class II RT1.B and RT1.D molecules were detergent solubilized (0.5% NP-40, 10 mM Tris HCl pH 8.3, 1 mM PMSF, 0.02% NaN3) from homogenized spleens and purified by affinity chromatography with monoclonal antibodies OX 6 and […]. The RT1.B/D mixture was incubated at 37° C. for 24 hours with a 50-fold molar excess of peptide AChRα 100-116, followed by 24 hours of dialysis at 4° C. against 0.1% OG/PBS to remove unbound peptide. […] This complex is stable at 4° C. for at least 8 weeks.

[3] = system: RT1.D; assay: as above; conditions: 50-fold molar excess peptide, 37° C., 24 hours
Experimental: as §1

[4] = system: T cell clones AJ1.2 and 4R3.4; assay: Proliferation (MTT uptake) of T cell clones with APC and MBP(1-13) after preincubation; format: cell-based, mouse; conditions: preincubation five hours at 37° C., 72-hour incubation
Experimental: The effects of detergent-solubilized Class II molecules were examined by culturing 1×10^5 AJ1.2 or 4R3.4 cells with 50-100 ul of purified I-A^k alone, purified I-A^k plus MBP(1-13) and medium alone for five hours at 37° C. in 5% CO2. Following this incubation the cells were diluted to 900 ul and tested for their ability to respond to antigen-presenting cells (APC) and antigen [MBP(1-13)] in a proliferation assay. Uptake of 3-(4,5-dimethyl-thiazol-2-7′)-2,5 diphenyltetrazolium bromide (MTT) was used as an indication of cell proliferation.
Data are presented as % suppression of proliferation of cells incubated with Class I+Ag compared to cells cultured with medium alone and were calculated by using the formula:
Therefore, 4R3.4 or AJ1.2 cells were preincubated with 50-100 ul of I-A^k+MBP(1-13), I-A^k, or medium alone for five hours at 37° C. The cells were then diluted to an appropriate concentration and added to APC. Antigen [MBP(1-13)] was added to a final concentration ranging from 13.3 um to 53.2 um.
APC used in the study were prepared from spleens of female A/J mice. […] Following this incubation, spleen cells were washed five times with RPMI containing antibiotics, counted, and used as APC's.
Following a 72-hour incubation period of the cells with APC and MBP(1-13), the extent of proliferation was quantitated using MTT uptake. […]

[5] = Serum half-life of 125I-labeled I-A^k, effect of periodate/cyanoborohydride treatment; format: in vivo, mice; conditions: 10 μg i.v.
Experimental: (§2) The protocol for these studies was generally as follows: Affinity-purified, soluble MHC molecules were labeled with ^125I by the iodobeads method (Pierce Chemical Co., Rockford, Ill. Excess ^125I was removed by dialysis against PBS containing 0.1% neutral detergent. The quality of the labeled protein was assessed by thin layer chromatography, cellulose acetate electrophoresis, and polyacrylamide gel electrophoresis. The MHC glycoprotein was administered by tail vein injection to mice subjected to Lugol's solution in the drinking water at least one day before injection. Blood samples were obtained at different time points. The animals were then sacrificed to obtain organs of interest. Radioactivity in the blood and organ samples was detected in a gamma well counter according to standard techniques.
I-A^k in a phosphate buffer containing 3 mM taurodeoxycholate at pH 7.5 was labeled as described above. The labeled molecules were subjected to periodate oxidation and cyanoborohydride reduction for 5 or 21 hours at 4° C., using 20 mM sodium periodate and 40 mM cyanoborohydride (final concentrations) in 0.1 M acetate buffer at pH 5.5. The reaction was quenched by addition of ethylene glycol (final concentration 0.7%). […] Blood samples were obtained at different time points and the percent of injected dose of I-A^k retained in the blood was calculated.

[6] = Serum half-life of 125I-labeled I-A^s, effect of liposomes; format: in vivo, mice; conditions: Sets 1 and 2: 10 μg, injected without blank liposomes
Experimental: as §2
I-A^s was labeled as described above. The labeled I-A^s molecules were captured inside liposomes by standard procedures (see, e.g., Remingtion's, supra). Ten mice were injected with 10 μg I-A^s, as described above, and divided into four sets: (1) I-A^s alone; (2) liposomal I-A^s; (3) liposomal I-A^s coinjected with blank liposomes; and (4) blank liposomes plus, 10 minutes later, liposomal I-A^s coinjected with blank liposomes. Blood samples were obtained at different time points after injection, and the percent of injected dose of I-A^s retained in the blood was calculated.

[7] = Serum half-life of 125I-labeled I-A^k, effect of asialoletuin; format: in vivo, mice
Experimental: as §2
IA^k was labeled and administered to mice as described above. The mice were divided into three sets: (1) I-A^k (10 μg i.v.); (2) I-A^k (10 μg i.v.) plus asialoletuin (10 mg i.v.) plus asialoletuin (100 mg i.p.); and (3) I-A^k (10 μg i.v.) plus asialoletuin (10 mg i.p.). Blood was drawn at different time points and the percent of injected dose retained in the blood was calculated.

| Molecule | clinical stage of representative rat ([1]; 61 days post EAMG induction) | clinical stage of representative rat ([1]; 123 days post EAMG induction) | survival frequency ([1]; 140 days post-induction, five weekly i.v. injections from clinical stage 1) | fraction of RT1.B that bound peptide [2] | fraction of RT1.D that bound peptide [3] | proliferation in presence of APC and MBP(1-13) [4] | serum half-life [5] | serum mean half-life [6] | mean serum half-life ([7]; Set 1: I-A^k 10 μg i.v.) | mean serum half-life ([7]; Set 2: I-A^k 10 μg i.v. plus asialoletuin 10 mg i.v. plus asialoletuin 100 mg i.p.) | mean serum half-life ([7]; Set 3: I-A^k 10 μg i.v. plus asialoletuin 10 mg i.p.) |
| --- | --- | --- | --- | --- | --- | --- | --- | --- | --- | --- | --- |
| YAIVHMTKLLLDYPGKI [AChRα 100-116, Torpedo AChRα subunit peptide 100-116] | 2.5 | Dead (day 66) | 0% | 70-80% | 90-100% |  |  |  |  |  |  |
| B1 |  |  |  |  |  | proliferated to the same extent as cells cultured in medium | 4 min | 2 min | 3 min | 40 min | 35 min |
